This assay has as its system sclerostin. Nature of the assay: Irisin injection in mice: sclerostin mRNA in osteocyte-enriched bones and plasma sclerostin protein (ELISA). In kind it is in vivo. The note with it: irisin IP daily for 6 days. On the procedure:
8 weeks old mice were injected daily with indicated dose of irisin for 6 days. […] were collected and treated with collagenase to yield osteocyte-enriched bones. Sclerostin mRNA level from osteocyte-enriched tibia was analyzed by qPCR (FIG. 7A). Cyclophilin was used as a house-keeping gene. Plasma was collected to analyze the circulating sclerostin protein level by ELISA assay (FIG. 7B). Data are represented as mean±SEM. For FIG. 7A and FIG. 7B, n=5 animals/group. * indicates p<0.05, and *** indicates p<0.001.
Certain materials and methods were used to generate the results described herein. For example, the data shown in FIG. 1A resulted from MLO-Y4 (an osteocyte-like cell line) cells treated with the indicated concentration of irisin and hydrogen peroxide for 4 hours. Cells were stained with Hoechst 33342 (ThermoFisher Scientific, catalog number H3570) and Eth-D1 (ThermoFisher Scientific, catalog number E1169) and analyzed to determine the percentage of cell death using ImageJ. […] Co-precipitated irisin was analyzed by immunoblot analysis against flag tag (Sigma Aldrich, catalog number A8592). The data shown in FIGS. 5A and 5B were generated from MLO-Y4 cells treated and analyzed as in the experiments used to generate the data shown in FIG. 2D, except that pre-treatment of 100 nM RGDS (FIG. 5A) or echistatin (R & D Systems Inc., catalog number 3202/100U) (FIG. 5B) for 10 minutes was performed before irisin treatment. […] RNAs were extracted from the cells and the sclerostin mRNA level was analyzed by qPCR (FIG. 6A) or treated and analyzed as in (FIG. 6A), except that pre-treatment of 10 μM RGDS, RGDyK (Selleck, catalog number S7844), or echistatin was performed for 10 minutes before irisin treatment. […] Sclerostin mRNA level was analyzed by qPCR (FIG. 7A). […] Epididymal fats were collected, RNAs were extracted from the tissues, and mRNA levels of the indicated genes were analyzed by qPCR. […]
Background: An ELISA detects its analyte on a solid surface through an enzyme-linked reagent.

B1: irisin: secreted cleaved form of FNDC5; recombinant human/mouse irisin with C-terminal his tag produced in HEK293 cells (protein)
chain: DSPSAPVNVTVRHLKANSAVVSWDVLEDEVVIGFAISQQKKDVRMLRFIQEVNTTTRSCALWDLEEDTEYIVHVQAISIQGQSPASEPVLFKTPREAEKMASKNKDEVTMKE
modifications: left off: small tags and cut ends
notes: secreted cleaved form of FNDC5; recombinant human/mouse irisin with C-terminal his tag produced in HEK293 cells
B1: the “sclerostin mRNA in osteocyte-enriched bones” value is given as “stimulated sclerostin mRNA”. For the same molecule, the “circulating (plasma) sclerostin protein” value (ELISA) is “significant increase”. Besides, the “sclerostin mRNA in osteocyte-enriched bones” value (listed as recombinant irisin) is “raised the sclerostin mRNA level”.

Source of the values: US20210063414A1, “METHODS FOR PREVENTING AND/OR TREATING BONE LOSS CONDITIONS BY MODULATING IRISIN” (Dana-Farber Cancer Institute, Inc., priority 2018, published 2021).
